In article PMC3085965 (Archives of biochemistry and biophysics, 2011):

Biological target: Thrombospondin-1 (human, purified from platelets) (human, UniProt P07996 19-1170, 125I label (where used as 125I-TSP1))
Experiment: radioligand binding

Thrombospondin-1 (human, purified from platelets), sequence (P07996 19-1170): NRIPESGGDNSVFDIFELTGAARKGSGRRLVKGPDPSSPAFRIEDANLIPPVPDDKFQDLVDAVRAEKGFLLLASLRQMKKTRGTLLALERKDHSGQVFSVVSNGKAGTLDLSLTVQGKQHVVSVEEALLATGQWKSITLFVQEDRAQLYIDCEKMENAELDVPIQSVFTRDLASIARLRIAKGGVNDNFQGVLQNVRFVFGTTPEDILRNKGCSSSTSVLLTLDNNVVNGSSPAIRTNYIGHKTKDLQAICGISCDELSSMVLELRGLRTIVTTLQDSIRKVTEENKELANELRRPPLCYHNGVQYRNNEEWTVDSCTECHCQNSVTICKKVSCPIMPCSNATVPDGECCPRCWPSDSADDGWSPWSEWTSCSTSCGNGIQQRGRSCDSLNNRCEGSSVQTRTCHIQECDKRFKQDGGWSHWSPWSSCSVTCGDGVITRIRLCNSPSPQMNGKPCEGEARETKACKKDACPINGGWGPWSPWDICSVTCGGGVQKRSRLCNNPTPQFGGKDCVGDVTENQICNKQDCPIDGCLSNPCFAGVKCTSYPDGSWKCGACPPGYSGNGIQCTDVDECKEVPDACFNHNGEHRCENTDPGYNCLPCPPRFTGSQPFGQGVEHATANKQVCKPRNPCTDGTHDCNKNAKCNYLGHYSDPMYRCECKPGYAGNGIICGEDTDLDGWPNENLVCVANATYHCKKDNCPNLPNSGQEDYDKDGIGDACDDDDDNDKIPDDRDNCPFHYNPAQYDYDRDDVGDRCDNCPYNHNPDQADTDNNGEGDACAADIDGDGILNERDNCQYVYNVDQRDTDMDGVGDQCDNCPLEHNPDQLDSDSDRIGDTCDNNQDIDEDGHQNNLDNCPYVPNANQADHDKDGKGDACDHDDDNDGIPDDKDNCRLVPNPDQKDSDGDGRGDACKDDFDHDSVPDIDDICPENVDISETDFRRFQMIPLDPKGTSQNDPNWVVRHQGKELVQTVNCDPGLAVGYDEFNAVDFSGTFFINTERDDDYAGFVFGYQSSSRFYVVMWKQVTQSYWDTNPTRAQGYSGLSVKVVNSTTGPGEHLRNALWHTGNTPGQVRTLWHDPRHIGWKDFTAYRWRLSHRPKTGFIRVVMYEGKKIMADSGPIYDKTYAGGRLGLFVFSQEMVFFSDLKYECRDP

Row | Kd [nM] | Binder
1 | 48 | full-length recombinant human sFRP-1 (natural protein, UniProt Q8N474 32-314, looked up) SEYDYVSFQSDIGPYQSGRFYTKPPQCVDIPADLRLCHNVGYKKMVLPNLLEHETMAEVKQQASSWVPLLNKNCHAGTQVFLCSLFAPVCLDRPIYPCRWLCEAVRDSCEPVMQFFGFYWPEMLKCDKFPEGDVCIAMTPPNATEASKPQGTTVCPPCDNELKSEAIIEHLCASEFALRMKIKEVKKENGDKKIVPKKKKPLKLGPIKKKDLKKLVLYLKNGADCPCHQLDNLSHHFLIMGRKVKSQYLLTAIHKWDKKNKEFKNFMKKMKNHECPTFQSVFK
2 | 95 | full-length recombinant human sFRP-2 (natural protein, UniProt Q96HF1 25-295, looked up) LFLFGQPDFSYKRSNCKPIPANLQLCHGIEYQNMRLPNLLGHETMKEVLEQAGAWIPLVMKQCHPDTKKFLCSLFAPVCLDDLDETIQPCHSLCVQVKDRCAPVMSAFGFPWPDMLECDRFPQDNDLCIPLASSDHLLPATEEAPKVCEACKNKNDDDNDIMETLCKNDFALKIKVKEITYINRDTKIILETKSKTIYKLNGVSERDLKKSVLWLKDSLQCTCEEMNDINAPYLVMGQKQGGELVITSVKRWQKGQREFKRISRSIRKLQC
